Drawing on the RNAGym collection of RNA variant scans (doi:10.7554/elife.80360), this text covers self-cleavage for 167 variants.

The labels stand for the following.
B1: HDV Ribozyme (parent)
chain: GGCCGGCAUGGUCCCAGCCUCCUCGCUGGCGCCGGCUGGGCAACAUUCCGAGGGGACCGUCCCCUCGGUAAUGGCGAAUGGGACCCA

The variants in this data set derive from B1. Nature of the data set: self-cleavage, relative activity (ratio to wild type); higher = more cleavage; co-transcriptional.
In the case of A71C G82C, the self-cleavage is 0.268.
On to U72G C86A, for which the self-cleavage amounted to 1.16.
For U72G C86G the value was 0.6; for U72A C75A, 0.222; for G68C G76A, 1.04.
Consider G74U A77U, for which the self-cleavage was 0.346.
Turning to A71G G74C, the self-cleavage turned out to be 0.383.
In the case of A71G G74U, the self-cleavage came out at 0.658.
On to A71G G74A, for which the self-cleavage worked out at 0.4.
Consider A70G G73C, for which the self-cleavage came to 0.356.
For the variant A70C G80U, the self-cleavage was 0.217.
Regarding A71U G73U, the self-cleavage was 0.237.
As to G74U C75G, the self-cleavage turned out to be 0.13.
As to U69G G80C, the self-cleavage is 0.219.
For the variant G73U G81U, the self-cleavage is 0.208.
For U69C A78G, the self-cleavage was determined as 0.831.
For the variant U69G G81A, the self-cleavage stood at 0.469.
For U69G A77U, the self-cleavage amounted to 0.375.
With G74A G82C the figure was 0.249; with G74A G82A, 0.0656.
Consider A70C G82U, for which the self-cleavage was found to be 0.166.
With G68A G82A the figure was 0.287.
For A71U G76U, the self-cleavage was 1.17.
With G73A A83G the figure was 0.511; with G68U G80C, 0.253; with G73U G76C, 0.158.
G73U G76A: the self-cleavage came out at 0.208.
On to U69C C75U, for which the self-cleavage turned out to be 0.0573.
Turning to A70G G81C, the self-cleavage stood at 0.277.
U69C G81A: the self-cleavage was 0.323.
For the variant A70G C75U, the self-cleavage was 0.136.
Consider A70G C75G, for which the self-cleavage came to 0.219.
Turning to G67C C84U, the self-cleavage is 0.523.
On to G67C C84G, for which the self-cleavage came to 0.499.
Regarding U69A A87U, the self-cleavage is 0.913.
For G68A C85U the value was 0.95; for G68A G73U, 0.251.
Regarding G68A G73A, the self-cleavage turned out to be 0.463.
Regarding G68A G73C, the self-cleavage came to 0.257.
In the case of G68U C84U, the self-cleavage was found to be 0.511.
On to G68U C84A, for which the self-cleavage came out at 0.816.
For the variant G73C U79A, the self-cleavage was determined as 0.302.
Consider A71C C86G, for which the self-cleavage amounted to 0.63.
Turning to G73A C84G, the self-cleavage is 0.345.
With G68C U72G, the self-cleavage was 0.356.
Regarding U72C G73A, the self-cleavage turned out to be 0.407.
In the case of U72C G73C, the self-cleavage stood at 0.208.
C66U C85G: the self-cleavage came out at 0.923.
For C66U C85U the value was 0.888; for C66U G74A, 0.451; for U69A U79A, 0.665.
C66G C75U: the self-cleavage is 0.157.
Take G68A G76C: the self-cleavage turned out to be 0.88.
As to G68A G76U, the self-cleavage amounted to 1.14.
Consider G73A A78U, for which the self-cleavage was determined as 0.106.
Consider G73A A78G, for which the self-cleavage came out at 0.203.
Take A71C G81U: the self-cleavage amounted to 0.17.
For A71U C85A, the self-cleavage came to 1.08.
As to A70U C85A, the self-cleavage was 1.06.
A70U C85U: the self-cleavage came out at 0.746.
As to G67A G76A, the self-cleavage came to 0.975.
For G68U C85G, the self-cleavage is 1.07.
With G67C C85U the figure was 0.92.
Consider U69A A70C, for which the self-cleavage was determined as 0.745.
G68C U79A: the self-cleavage stood at 0.705.
Turning to G68U U72C, the self-cleavage was found to be 0.237.
Take G67A G68C: the self-cleavage worked out at 0.707.
As for U72G A83C, the self-cleavage was found to be 0.332.
As for U69C U79A, the self-cleavage was 0.684.
Regarding U69A A77C, the self-cleavage worked out at 0.199.
With C66U G81C, the self-cleavage came to 0.277.
With A71C G80A, the self-cleavage is 0.266.
A71C G80U: the self-cleavage is 0.182.
Turning to U72G C85A, the self-cleavage came to 0.653.
As to G68A U79G, the self-cleavage turned out to be 0.584.
Turning to U69A C75G, the self-cleavage is 0.138.
For U69A C75A, the self-cleavage was determined as 0.119.
Turning to G67U A78C, the self-cleavage is 0.223.
Take G67U A78G: the self-cleavage is 0.791.
For A71G G73C the value was 0.6; for C66U U69A, 0.831.
As for C66U U69C, the self-cleavage was determined as 0.92.
With G67A U79G the figure was 0.807; with U69A C84G, 0.578.
With U69G C86G, the self-cleavage turned out to be 0.692.
In the case of U69G C86A, the self-cleavage turned out to be 0.917.
As for G73U G80U, the self-cleavage was found to be 0.124.
Take G73U G80C: the self-cleavage worked out at 0.2.
For A71G A87C, the self-cleavage turned out to be 1.03.
Turning to G68C A83C, the self-cleavage is 0.332.
For G67A A83U, the self-cleavage amounted to 0.359.
Take C66A G68U: the self-cleavage was 0.616.
On to U72G G82C, for which the self-cleavage came out at 0.453.
With C66U A83C, the self-cleavage is 0.298.
With G74A A77G, the self-cleavage turned out to be 0.332.
With G68U G76U, the self-cleavage turned out to be 1.09.
With U72G G74U the figure was 0.264; with C66A G81U, 0.227; with G67U C85G, 0.831.
Regarding G67U C85A, the self-cleavage stood at 0.831.
As for U72A G82U, the self-cleavage is 0.225.
Take U72A G82A: the self-cleavage came out at 0.295.
A70G A87G: the self-cleavage turned out to be 1.01.
For A70G A71U, the self-cleavage stood at 0.852.
Consider U69C G73A, for which the self-cleavage came out at 0.653.
With G67C G74U the figure was 0.332; with G67C G74A, 0.415.
Turning to U69G A70U, the self-cleavage was 0.95.
Take U69G A70G: the self-cleavage came out at 0.767.
For U72A A77U the value was 0.322.
For G68C G81U the value was 0.123; for G67C A77G, 0.508.
G67C A71G: the self-cleavage stood at 0.743.
For U72C A78U, the self-cleavage was 0.249.
As to A70G C85A, the self-cleavage amounted to 1.07.
For C66A G82U, the self-cleavage is 0.36.
Regarding C66A G82C, the self-cleavage turned out to be 0.34.
For U69C G82A the value was 0.246; for A71G G76A, 1; for A71G G76C, 0.73.
On to U72A G76A, for which the self-cleavage was 0.759.
Regarding C66U C86U, the self-cleavage came out at 1.15.
For C66U C86G, the self-cleavage was 0.772.
C66A U72C: the self-cleavage stood at 0.229.
Take U69A A83C: the self-cleavage amounted to 0.499.
As to U69A A83U, the self-cleavage worked out at 0.427.
Consider G73U C84U, for which the self-cleavage stood at 0.256.
Turning to A71G A83U, the self-cleavage is 0.323.
In the case of A71U C86U, the self-cleavage was determined as 1.02.
Consider U72C G74U, for which the self-cleavage is 0.584.
For C66G G68U the value was 0.812; for U72A U79A, 0.536; for U72A U79G, 0.361.
For U72C C75G, the self-cleavage was 0.166.
For G68A C75G, the self-cleavage was determined as 0.0875.
G74C A87U: the self-cleavage was found to be 0.304.
For U69G G76U the value was 1.01; for G73C G76C, 0.501; for G73C G76U, 0.659.
As for G73A G76C, the self-cleavage was 0.516.
With G67A A71G, the self-cleavage is 1.05.
In the case of G67A A78U, the self-cleavage is 0.234.
For G67A A78G the value was 0.604.
For G67A A78C the value was 0.0963; for G68A A78C, 0.0733; for G68A A78U, 0.277.
Turning to A71G U72C, the self-cleavage worked out at 0.705.
For the variant A71G U72A, the self-cleavage was found to be 0.573.
For A71C G76A the value was 0.935; for A71C G76C, 0.848; for U69C A71U, 1.01.
Regarding G74C G81U, the self-cleavage turned out to be 0.0831.
Turning to U69C G80A, the self-cleavage was 0.305.
For G68C G74U the value was 0.394.
For the variant G74A A87C, the self-cleavage was determined as 0.583.
Regarding G74A A87U, the self-cleavage worked out at 0.628.
With C66G U79G the figure was 0.772.
Regarding U72G G80U, the self-cleavage stood at 0.0963.
In the case of A70C G81C, the self-cleavage is 0.201.
Regarding G67U G74U, the self-cleavage stood at 0.453.
For C66G C85U the value was 0.933; for C66G C85A, 1.02; for G73C C86G, 0.415.
With A71C A78G, the self-cleavage was found to be 0.615.
With A71C A78C the figure was 0.219; with G67U A70C, 0.987.
On to G67A A77G, for which the self-cleavage is 0.712.
